The text below walks through data of the DeepSol protein solubility set.

This data set can be described thus: soluble on expression in E. coli; label from the status in PepcDB or PDB records.
As for “SERTQSSNMETRLDAMKELAKLSADVTFATEFINMDGIIVLTRLVESGTKLLSHYSEMLAFTLTAFLELMDHGIVSWDMVSITFIKQIAGYVSQPMVDVSILQRSLAILESMVLNSQSLYQKIAEEITVGQLISHLQVSNQEIQTYAIALINALFLKAPEDKRQDMANAFAQKHLRSIILNHVIRGNRPIKTEMAHQLYVLQVLTFNLLEERMMTKMDPNDQAQRDIIFELRRIAFDAESDPSNAPGSGTEKRKAMYTKDYKMLGFTNHINPAMDFTQTPPGMLALDNMLYLAKVHQDTYIRIVLENSSREDKHECPFGRSAIELTKMLCEILQVGELPNEGRNDYHPMFFTHDRAFEELFGICIQLLNKTWKEMRATAEDFNKVMQVVREQITRALPSKPNSLDQFKSKLRSLSYSEILRLRQSERMSQDDFQSPPIVELREKIQPEILELIKQQRLNRLCEGSSFRKIGNRRRQERFWYCRLALNHKVLHYGDLDDNPQGEVTFESLQEKIPVADIKAIVTGKDCPHMKEKSALKQNKEVLELAFSILYDPDETLNFIAPNKYEYCIWIDGLSALLGKDMSSELTKSDLDTLLSMEMKLRLLDLENIQIPEAPPPIPKEPSSYDFVYHYG”, the “soluble on expression in E. coli” value is given as “not soluble”. Consider “SETPEVPVGSLIDFGPEAPTSSPLEAPPPVLQDGDGSLGDGASESETTESADSENDMGESPSHPSWDQDRRSSSNESFSSNQSTESTQDEETLALRDFMRGYVEKIFSGGEDLDQEEKAKFGEYCSSENGKGREWFARYVSAQRCNSKCVSEATFYRLVQSFAVVLFECHQMDDFGPAKNLMTMCFTYYHIGKPQLLPPESREKPAGSIDSYLKSANSWLAEKKDIAERLLKNTSARTENVKGFFGGLETKLKGPLARRNEEDENKPQEKRPRAVTAYSPEDEKKGEKIYLYTHLKQQPIW”, for which the “soluble on expression in E. coli” value is given as “soluble”. With “SFFMGEKTFYHIKKENLILKARMFGKITSLGISGFVMQGTNCLVQIVCNKMLFMYGGDMYVGIMTVINSVREILSVPGSTLGSGAQPVLGYNYGAKQYERVRKA”, the “soluble on expression in E. coli” value is listed as “not soluble”. In the case of “SFFTCGPNEAMVVSGFCRSPPVMVAGGRVFVLPCIQQIQRISLNTLTLNVKSEKVYTRHGVPISVTGIAQVKIQGQNKEMLAAACQMFLGKTEAEIAHIALETLEGHQRAIMAHMTVEEIYKDRQKFSEQVFKVASSDLVNMGISVVSYTLKDIHDDQDYLHSLGKARTAQVQKDARIGEAEAKRDAGIREAKAKQEKVSAQYLSEIEMAKAQRDYELKKAAYDIEVNTRRAQADLAYQLQVAKTKQQIEEQRVQVQVVERAQQVAVQEQEIARREKELEARVRKPAEAERYKLERLAEAEKSQLIMQAEAEAASVRMRGEAEAFAIGARARAEAEQMAKKAEAFQLYQEAAQLDMLLEKLPQVAEEISGPLTSANKITLVSSGSGTMGAAKVTGEVLDILTRLPESVERLTGVSISQVNHKPLRTA”, the “soluble on expression in E. coli” value is listed as “not soluble”.

Turning to “SFRDCAEVFKSGHTTNGIYTLTFPNSTEEIKAYCDMEAGGGGWTIIQRREDGSVDFQRTWKEYKVGFGNPSGEYWLGNEFVSQLTNQQRYVLKIHLKDWEGNEAYSLYEHFYLSSEELNYRIHLKGLTGTAGKISSISQPGNDFSTKDGDNDKCICKCSQMLTGGWWFDACGPSNLNGMYYPQRQNTNKANGIKWAAWKGSGYSLKATTMMIRPADF”, the “soluble on expression in E. coli” value is reported as “soluble”. The result for “SFTSMLSVNQAVSAERKLIDHLIIYIEHEAQRLEDIKRFFSRVTSLHDGIYNEPSDPIANPIAAFKLVKRLKSEWLNVVHSTEAEENIKVLREDYRRMESSLPKLEDLRGAAHGLMRLQDVYNLHVESLVRGHFQQISDPVDFYKLSVSDMLSGDDCFLVGKVAYDLEDYYHSVLWFEEAVRLFRGTEWSPENEGTLEDALDHLAFSHFKVCH” reads “not soluble”. The result for “SGAAAAEADRTLFVGNLETKVTEELLFELFHQAGPVIKVKIPKDKDGKPKQFAFVNFKHEVSVPYAMNLLNGIRLYGRPIKIQFRSGSSHAPQDVSLSYPQHHVGNSSPTSTSPSRYERTMDNMTSSAQIIQRSFSSPENFQRQAVMNSALRQMSYGGKFGSSPLDQSGFSPSVQSHSHSFNQSSSSQWRQGTPSSQRKVRMNSYPYLADRHYSREQRYTDHGSDHHYRGKRDDFFYEDRNHDDWSHDYDNRRDSSRDGKWRSSRH” reads “soluble”; that for “SHMAGLEVLFASAAPAITCRQDALVCFLHWEVVTHGYCGLGVGDQPGPNDKKSELLPAGWNNNKDLYVLRYEYKDGSRKLLVKAITVESSMILNVLEYGSQQVADLTLNLDDYIDAEHLGDFHRTYKNSEELRSRIVSGIITPIHEQWEKANV”, “soluble”.
